B1: ExbB (natural protein, UniProt P0ABU7 1-244, looked up)
chain: MGNNLMQTDLSVWGMYQHADIVVKCVMIGLILASVVTWAIFFSKSVEFFNQKRRLKREQQLLAEARSLNQANDIAADFGSKSLSLHLLNEAQNELELSEGSDDNEGIKERTSFRLERRVAAVGRQMGRGNGYLATIGAISPFVGLFGTVWGIMNSFIGIAQTQTTNLAVVAPGIAEALLATAIGLVAAIPAVVIYNVFARQIGGFKAMLGDVAAQVLLLQSRDLDLEASAAAHPVRVAQKLRAG
notes: ExbB, inner membrane subunit of the Ton complex, 244 residues, three TM helices; native exbB, no tag; also called native ExbB; ExbB pentamer; source: reconstituted in lipid nanodiscs (MSP1E3D1, E. coli polar lipid extract)

Columns and labels:
[1] = biological target: ExbD (UniProt P0ABV2); assay: cryo-EM structure; single particle cryo-EM of the co-expressed, purified full-length ExbB-ExbD complex in lipid nanodiscs (MSP1E3D1, E. coli polar lipid extract); Tris 25 mM pH7.4 NaCl 200 mM; C1 symmetry, 3.3 Å
[2] = biological target: the molecule itself; assay: as above

Row | Molecule | stoichiometry N [1] | stoichiometry N [2]
1 | ExbD (from UniProt P0ABV2 1-141) (natural protein) | 2 | 
2 | B1 |  | 5

— publication PMC6778125, “Cryo-EM structure of the bacterial Ton motor subcomplex ExbB–ExbD provides information on structure and stoichiometry” (Communications Biology, 2019)
